Experimental data reported in patent publication US20260042834A1, “ANTI-CORTICOTROPIN-RELEASING HORMONE ANTIBODIES AND POLYCYSTIC OVARY SYNDROME” (HBM ALPHA THERAPEUTICS, INC., priority 2022, published 2026).

Experiments:
biotinylated CRH = molecular target: T1, biotinylated CRH (Homo sapiens, UniProt P06850); assay: Affinity determination with Octet; format: binding
T1 construct: purchased GL Biochem 784751
T1 sequence (P06850 154-194): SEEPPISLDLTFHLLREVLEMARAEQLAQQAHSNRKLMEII
Method: Octet® Red 96e was used for affinity measurement. Octet® running buffer was prepared by diluting kinetics buffer 10× (Fortebio, Cat #18-1105) in PBS according to the manufacturer's instructions. Two columns of SA sensors (Fortebio, Cat #18-5019) were hydrated in running buffer for 10 mins, one for ligand capturing and the other for reference. Antibodies were 2-fold diluted and added into a 96-well plate. 30 nM biotinylated CRH (GL Biochem, Cat #784751) was captured by the first column of SA sensors for 20 seconds, while reference sensors were dipped into buffer wells. After a 60-second baseline step, sensors were dipped into analyte and buffer wells successively, with the association and dissociation time of 180 seconds and 800 seconds, respectively. Sensors were regenerated in glycine pH1.5 (Cytiva, Cat #BR-1003-54) before the next cycle. […] Signals of reference wells and reference sensors were subtracted by selecting “Double reference” before data fitting.

mouse CRHR2 = assay: CRH-induced luciferase reporter blocking assay, CHO-CRE-mCRHR2 cells; format: cell-based
Method: To create CHO-CRE-hCRHR1, -hCRHR2, -mCRHR1, and -mCRHR2 reporter cell lines, pcDNA3.1-hCRHR1, -hCRHR2, -mCRHR1, and -mCRHR2 were introduced into CHO-CRE cells established above by electroporation as described above. Selection antibiotics hygromycin at 500 μg/ml and G418 at 1,000 μg/ml were employed. Individual established stable cell lines were characterized by both CRH and forskolin stimulation. […]
(§1) Cells were digested by trypsin-EDTA (Life technologies, Cat #:12604-013), centrifuged at 1,000 rpm for 5 min, resuspended in growth medium, counted using a cell counter, seeded at a concentration of 5,000 cells per 100 μl in 96-well flat plates, and incubated overnight. 50 μl of 4× serially diluted antibodies was added (8 points, 1/4 diluted by growth medium) to plates containing CHO-CRE-hCRHR1 cells, and 50 μl of 4×CRH (4× is 2 nM, final is 0.5 nM) was added. Similarly, 4×CRH (4× is 0.4 nM, final is 0.1 nM) was added to CHO-CRE-hCRHR2 cells and CHO-CRE-mCRHR1 cells, and 4×CRH (4× is 20 nM, final is 5 nM) was added to CHO-CRE-mCRHR2 cells. Next, plates were incubated 4-6 hours at 37° C. in a CO2 incubator. 60 μl of culture medium was removed, to which was added 60 μl of Bio-Glo luciferase, followed by incubation for 10 min at RT. Plates were read in a luciferase plate reader (EnVision, PerkinElmer).

human CRHR2 = assay: CRH-induced luciferase reporter blocking assay, CHO-CRE-hCRHR2 cells; format: cell-based
Method: To create CHO-CRE-hCRHR1, -hCRHR2, -mCRHR1, and -mCRHR2 reporter cell lines, pcDNA3.1-hCRHR1, -hCRHR2, -mCRHR1, and -mCRHR2 were introduced into CHO-CRE cells established above by electroporation as described above. Selection antibiotics hygromycin at 500 μg/ml and G418 at 1,000 μg/ml were employed. Individual established stable cell lines were characterized by both CRH and forskolin stimulation.
Activated GPCR proteins increase production of the intracellular cAMP. CHO-CRE-human CRHR1 stable clone 11 was generated by introduction of pcDNA3.1-human CRHR1 under the selection of G418 and hygromycin. Human CRHR1 expression in CHO-CRE-hCRHR1 Clone 11 was confirmed by flow cytometry (data not shown). To further validate that the cell line was functional, CHO-CRE-hCRHR1 Clone 11 cells were treated with forskolin and CRH peptide. […] Subsequently CHO-CRE-hCRHR2 Clone 32, -mCRHR1 Clone 22, and -mCRHR2 Clone 8 cell lines were established using similar methodology and validated with CRH treatment (data not shown).
Blocking CRHR1 by small molecules or neutralization of CRH peptide can reduce luciferase expression if the CRH-CRHR1 system works in CHO-CRE-hCRHR1 cells. Antalarmin, a small molecule CRHR1 antagonist, blocked CRH-mediated luciferase expression in CHO-CRE-hCRHR1 Clone 11 (data not shown). Furthermore, sheep anti-CRH polyclonal antibody reduced CRH-mediated luciferase expression in these cells (data not shown). Likewise, sheep anti-CRH polyclonal antibody blocked CRH-mediated luciferase expression in CHO-CRE-hCRHR2, CHO-CRE-mCRHR1, and CHO-CRE-mCRHR2 cells (data not shown).
as §1

[1] = CHO-CRE-hCRHR2 cells, 0.1 nM CRH

B1: PR302309: Series 7 anti-CRH mAb from immunized wildtype mice; VH SEQ ID NO: 260, VL SEQ ID NO: 317 (antibody, V domains shown)
VH: QIQLVQSGPELKKPGETVKISCKASGYTFTNYGMNWVKQAPGKVLKWMGWINTYTGEPIYTDDFKGRFAFSLETSASTAYLQINNLKNEDTATYFCSRSTMITTGGVFAYWGQGTLVTVSA
VL: DVLMAQTPLSLPVSLGDQASISCRSSQTIVHSDGNTYLEWYLQKPGQSPKLLIYKVSNRFSGVPDRFSGSGSGTDFTLKISRVEAEDLGVYYCFQGSHVPWTFGGGTKLEIK
modifications: PR302309-1 VH, PR302309-2 VH, PR302309-3 VH, PR302309-4 VH,PR302309-5 VH, PR302309-6 VH, PR302309 VH; PR302309-13 VL, PR302309-14 VL, PR302309-15 VL, PR302309-16 VL,PR302309 VL
kdis (biotinylated CRH): 4.03e-06 s⁻¹
kon (biotinylated CRH): 263000 M⁻¹ s⁻¹

B2: PR302334-11: humanized variant of Series 9 mAb PR302334; VH SEQ ID NO: 273, VL SEQ ID NO: 329 (antibody, V domains shown)
VH: EVQLVESGGGLVQPGGSLRLSCAASGFTFSTYAMSWVRQAPGKGLEWVASIRSGGTTYYPDSVKGRFTISRDNSKNTLYLQMNSLRAEDTAVYYCTRGIDWGQGTTVTVSS
VL: DIQMTQSSLSASVSLGDRVTITCKASQSVNNDVAWYQQKPGKAPRLLIYYASNRYTGVPSRFSGSGSGTDFTFTISSLQPEDIATYYCQQDYSSWTFGGGTKVEIK
modifications: PR302334-10 VH, PR302334-11 VH, PR302334-12 VH, PR302334-14 VH,PR302334-7 VH, PR302334-8 VH, PR302334-9 VH; PR302334-11 VL, PR302334-5 VL
kdis (biotinylated CRH): <1e-07 s⁻¹
kon (biotinylated CRH): 684000 M⁻¹ s⁻¹

B3: PR302334-25: humanized variant of Series 9 mAb PR302334; VH SEQ ID NO: 275, VL SEQ ID NO: 330 (antibody, V domains shown)
VH: EVQLVESGGGLVKPGGSLRLSCAASGFTFSTYAMSWVRQAPGKGLEWVASIRSGGTTYYPDSVKGRFTISRDNAKNSLYLQMNSLRAEDTAVYYCTRGIDWGQGTTVTVSS
VL: DIQMTQSSLSASVSLGDRVTITCKASQSVNNDVAWYQQKPGKAPRLLIYYASNRYTGVPSRFSGSGSGTDFTFTISSLQPEDLATYFCQQDYSSWTFGGGTKVEIK
modifications: PR302334-16 VH, PR302334-24 VH, PR302334-25 VH; PR302334-12 VL, PR302334-25 VL, PR302334-27 VL, PR302334-6 VL
kdis (biotinylated CRH): <1e-07 s⁻¹
kon (biotinylated CRH): 285000 M⁻¹ s⁻¹

B4: PR302341-21: humanized variant of Series 10 mAb PR302341; VH SEQ ID NO: 284, VL SEQ ID NO: 340 (antibody, V domains shown)
VH: QVQLVQSGAEVKKPGASVKVSCKASGYTFTDYFMKWVRQAPGQRLEWMGVINPNNGDIFYNQKFKGRVTITVDKSASTAYMELSSLRSEDTAVYYCARGTDRALFAYWGQGTLVTVSS
VL: DVVMTQSPLSLPVTLGQPASISCRSGQSIVHSDGNTYLEWYQQRPGQSPRLLIYKVSNRFSGVPDRFSGSGSGTDFTLKISRVEAEDLGVYYCFQGSHIPWTFGGGTKVEIK
modifications: PR302341-16 VH, PR302341-21 VH, PR302341-24 VH, PR302341-25 VH; PR302341-19 VL, PR302341-20 VL, PR302341-21 VL, PR302341-22 VL,PR302341-23 VL, PR302341-28 VL, PR302341-29 VL, PR302341-2 VL,PR302341-41 VL, PR302341-55 VL, PR302341-56 VL, PR302341-57 VL,PR302341-
IC50 (mouse CRHR2; CHO-CRE-mCRHR2 cells, 5 nM CRH): 633 pM
IC50 (human CRHR2; [1]): 272 pM

B5: PR302341-24: humanized variant of Series 10 mAb PR302341; VH SEQ ID NO: 284, VL SEQ ID NO: 336 (antibody, V domains shown)
VH: QVQLVQSGAEVKKPGASVKVSCKASGYTFTDYFMKWVRQAPGQRLEWMGVINPNNGDIFYNQKFKGRVTITVDKSASTAYMELSSLRSEDTAVYYCARGTDRALFAYWGQGTLVTVSS
VL: DVVMTQTPLSSPVTLGQPASISCRSGQSIVHSDGNTYLEWYQQRPGQPPRLLIYKVSNRFSGVPDRFSGSGAGTDFTLKISRVEAEDLGVYYCFQGSHIPWTFGGGTKVEIK
modifications: PR302341-16 VH, PR302341-21 VH, PR302341-24 VH, PR302341-25 VH; PR302341-10 VL, PR302341-24 VL, PR302341-26 VL, PR302341-43 VL,PR302341-44 VL, PR302341-45 VL, PR302341-4 VL
IC50 (mouse CRHR2; CHO-CRE-mCRHR2 cells, 5 nM CRH): ~457 pM
IC50 (human CRHR2; [1]): 99 pM

B6: PR302341-23: humanized variant of Series 10 mAb PR302341; VH SEQ ID NO: 286, VL SEQ ID NO: 340 (antibody, V domains shown)
VH: QVQLVQSGAEVKKPGASVKVSCKASGYTFTDYFMKWVRQAPGQGLEWMGVINPNNGDIFYNQKFKGRVTMTVDKSISTAYMELSRLRSDDTAVYYCARGTDRALFAYWGQGTLVTVSS
VL: DVVMTQSPLSLPVTLGQPASISCRSGQSIVHSDGNTYLEWYQQRPGQSPRLLIYKVSNRFSGVPDRFSGSGSGTDFTLKISRVEAEDLGVYYCFQGSHIPWTFGGGTKVEIK
modifications: PR302341-18 VH, PR302341-23 VH, PR302341-26 VH, PR302341-27 VH,PR302341-30 VH, PR302341-31 VH, PR302341-42 VH; PR302341-19 VL, PR302341-20 VL, PR302341-21 VL, PR302341-22 VL,PR302341-23 VL, PR302341-28 VL, PR302341-29 VL, PR302341-2 VL,PR302341-41 VL, PR302341-55 VL, PR302341-56 VL, PR302341-57 VL,PR302341-
IC50 (mouse CRHR2; CHO-CRE-mCRHR2 cells, 5 nM CRH): 501 pM
IC50 (mouse CRHR2; Table 9, mCrhr2): 1370 pM
IC50 (human CRHR2; [1]): 127 pM
IC50 (human CRHR2; Table 9, hCRHR2): 1380 pM

B7: PR302334: Series 9 anti-CRH mAb from immunized wildtype mice; VH SEQ ID NO: 272, VL SEQ ID NO: 331 (antibody, V domains shown)
VH: EVKLVESGGGLVKPGGSLKLSCAASGFTFSTYAMSWVRQTPEKRLEWVASIRSGGTTYYPDSVKGRFTISRDNARNILYLQMSSLRSEDTAIYYCTRGIDWGQGTLVTVSA
VL: NIVMTQTPKFLLVSAGDRITITCKASQSVNNDVAWYQQKPGQSPKLLIYYASNRYTGVPDRFTGSGYGTDFTFTISTVQAEDLAVYFCQQDYSSWTFGGGTNLEIK
modifications: PR302334-1 VH, PR302334-2 VH, PR302334-3 VH, PR302334-4 VH,PR302334-5 VH, PR302334-6 VH, PR302334 VH; PR302334-14 VL, PR302334-15 VL, PR302334-16 VL, PR302334-17 VL,PR302334-18 VL, PR302334 VL
IC50 (mouse CRHR2; CHO-CRE-mCRHR2 cells, 5 nM CRH): 995 pM
IC50 (human CRHR2; [1]): 803 pM
kdis (biotinylated CRH): <1e-07 s⁻¹
kon (biotinylated CRH): 669000 M⁻¹ s⁻¹
